Drawing on publication PMC12170185, this text covers Kd for 6 substances.

Targets include UPF2L (UniProt Q9HAU5); UPF2 MIF4G-D3 (UniProt Q9HAU5); UPF2 MIF4G-D1 (UniProt Q9HAU5); UPF2 MIF4G-D2-3 (UniProt Q9HAU5); UPF2 MIF4G-D1-2 (UniProt Q9HAU5); UPF2 MIF4G-D2 (UniProt Q9HAU5).
What all share (test): fluorescence anisotropy
Common to all, as to settings: FA: 25 mM HEPES pH 7.45, 150 mM NaCl, 5% glycerol, 10 nM probe, temperature not stated, EMSA: 250 nM probe in 25 mM HEPES pH 7.45, 100 mM NaCl

Chain of UPF2L (Q9HAU5 121-1227): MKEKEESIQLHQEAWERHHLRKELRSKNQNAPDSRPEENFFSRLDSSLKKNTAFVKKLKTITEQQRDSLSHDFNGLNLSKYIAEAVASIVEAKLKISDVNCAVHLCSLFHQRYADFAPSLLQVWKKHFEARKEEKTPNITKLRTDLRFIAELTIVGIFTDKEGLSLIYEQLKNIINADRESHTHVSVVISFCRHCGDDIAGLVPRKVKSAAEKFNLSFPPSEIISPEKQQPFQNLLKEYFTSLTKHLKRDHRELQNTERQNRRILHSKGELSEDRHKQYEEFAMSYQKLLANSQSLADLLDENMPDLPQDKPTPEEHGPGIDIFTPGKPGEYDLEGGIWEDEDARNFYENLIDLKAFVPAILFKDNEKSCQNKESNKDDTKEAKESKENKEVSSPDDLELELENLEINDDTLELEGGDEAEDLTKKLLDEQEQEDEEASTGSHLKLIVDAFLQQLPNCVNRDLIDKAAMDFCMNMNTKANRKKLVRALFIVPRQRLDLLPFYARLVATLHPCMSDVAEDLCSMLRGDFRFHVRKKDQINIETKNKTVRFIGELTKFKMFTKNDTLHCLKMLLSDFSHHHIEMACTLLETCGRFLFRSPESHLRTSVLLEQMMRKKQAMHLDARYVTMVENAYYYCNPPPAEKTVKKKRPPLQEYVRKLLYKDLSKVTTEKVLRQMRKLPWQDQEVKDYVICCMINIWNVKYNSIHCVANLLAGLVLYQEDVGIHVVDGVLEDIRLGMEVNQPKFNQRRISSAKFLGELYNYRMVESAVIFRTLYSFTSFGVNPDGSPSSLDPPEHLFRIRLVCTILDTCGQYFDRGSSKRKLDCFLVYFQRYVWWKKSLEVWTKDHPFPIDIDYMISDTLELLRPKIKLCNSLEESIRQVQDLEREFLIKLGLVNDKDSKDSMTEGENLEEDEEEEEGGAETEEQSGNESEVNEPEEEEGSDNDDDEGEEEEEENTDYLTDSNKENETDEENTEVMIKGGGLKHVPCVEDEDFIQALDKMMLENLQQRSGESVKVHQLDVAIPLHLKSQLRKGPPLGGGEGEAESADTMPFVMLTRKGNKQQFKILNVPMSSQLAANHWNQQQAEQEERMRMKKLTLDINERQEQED
Chain of UPF2 MIF4G-D3 (Q9HAU5 761-1054): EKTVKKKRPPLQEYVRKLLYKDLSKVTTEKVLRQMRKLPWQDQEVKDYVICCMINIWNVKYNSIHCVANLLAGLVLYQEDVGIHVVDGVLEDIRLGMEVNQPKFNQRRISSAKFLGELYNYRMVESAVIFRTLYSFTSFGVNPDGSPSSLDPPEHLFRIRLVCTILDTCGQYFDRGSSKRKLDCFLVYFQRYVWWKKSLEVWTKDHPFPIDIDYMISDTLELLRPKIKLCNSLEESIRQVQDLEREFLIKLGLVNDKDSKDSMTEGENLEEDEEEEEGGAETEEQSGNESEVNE
Chain of UPF2 MIF4G-D2-3 (Q9HAU5 455-1054): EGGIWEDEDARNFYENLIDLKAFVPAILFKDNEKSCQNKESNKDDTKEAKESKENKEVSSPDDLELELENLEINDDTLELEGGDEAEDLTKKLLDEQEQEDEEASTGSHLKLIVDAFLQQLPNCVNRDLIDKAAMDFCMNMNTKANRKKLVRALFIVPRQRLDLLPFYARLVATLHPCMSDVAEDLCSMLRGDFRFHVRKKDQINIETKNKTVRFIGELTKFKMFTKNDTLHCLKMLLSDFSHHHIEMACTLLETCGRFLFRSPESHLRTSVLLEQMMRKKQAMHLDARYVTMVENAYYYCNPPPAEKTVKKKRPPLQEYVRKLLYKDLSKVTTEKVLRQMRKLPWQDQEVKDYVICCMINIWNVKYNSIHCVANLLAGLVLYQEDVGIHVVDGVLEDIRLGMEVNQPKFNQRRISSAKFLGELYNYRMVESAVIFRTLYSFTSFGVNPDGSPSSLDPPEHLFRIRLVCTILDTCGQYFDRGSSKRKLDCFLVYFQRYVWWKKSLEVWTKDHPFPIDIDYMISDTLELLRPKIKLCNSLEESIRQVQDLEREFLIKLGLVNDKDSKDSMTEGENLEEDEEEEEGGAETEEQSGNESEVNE
Chain of UPF2 MIF4G-D1 (Q9HAU5 120-486): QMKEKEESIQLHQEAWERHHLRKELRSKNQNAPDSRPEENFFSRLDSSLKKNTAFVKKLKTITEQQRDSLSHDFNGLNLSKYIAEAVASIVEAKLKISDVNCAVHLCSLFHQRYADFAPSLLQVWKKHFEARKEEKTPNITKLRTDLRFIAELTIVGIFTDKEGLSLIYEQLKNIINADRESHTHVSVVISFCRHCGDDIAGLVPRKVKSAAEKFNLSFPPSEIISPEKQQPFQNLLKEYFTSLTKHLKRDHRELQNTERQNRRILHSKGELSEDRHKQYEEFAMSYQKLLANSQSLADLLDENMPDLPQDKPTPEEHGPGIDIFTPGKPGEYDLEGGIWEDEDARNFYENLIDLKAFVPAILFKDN
Chain of UPF2 MIF4G-D1-2 (Q9HAU5 120-757): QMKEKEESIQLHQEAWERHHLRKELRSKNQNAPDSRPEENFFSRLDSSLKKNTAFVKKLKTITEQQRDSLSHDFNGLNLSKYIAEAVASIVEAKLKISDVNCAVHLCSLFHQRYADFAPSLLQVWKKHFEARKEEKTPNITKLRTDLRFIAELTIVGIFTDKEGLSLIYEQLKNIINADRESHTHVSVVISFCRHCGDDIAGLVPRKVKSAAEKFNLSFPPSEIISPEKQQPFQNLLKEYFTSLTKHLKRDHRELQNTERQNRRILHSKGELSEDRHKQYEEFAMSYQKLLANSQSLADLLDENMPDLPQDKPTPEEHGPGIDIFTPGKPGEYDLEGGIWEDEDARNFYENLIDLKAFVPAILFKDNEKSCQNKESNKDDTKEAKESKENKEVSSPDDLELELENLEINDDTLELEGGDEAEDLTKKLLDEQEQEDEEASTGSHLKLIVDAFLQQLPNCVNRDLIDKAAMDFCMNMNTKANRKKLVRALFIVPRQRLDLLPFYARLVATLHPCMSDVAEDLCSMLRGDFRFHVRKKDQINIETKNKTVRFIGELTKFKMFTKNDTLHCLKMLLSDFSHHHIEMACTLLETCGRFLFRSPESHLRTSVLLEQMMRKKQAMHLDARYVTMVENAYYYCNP
Chain of UPF2 MIF4G-D2 (Q9HAU5 455-757): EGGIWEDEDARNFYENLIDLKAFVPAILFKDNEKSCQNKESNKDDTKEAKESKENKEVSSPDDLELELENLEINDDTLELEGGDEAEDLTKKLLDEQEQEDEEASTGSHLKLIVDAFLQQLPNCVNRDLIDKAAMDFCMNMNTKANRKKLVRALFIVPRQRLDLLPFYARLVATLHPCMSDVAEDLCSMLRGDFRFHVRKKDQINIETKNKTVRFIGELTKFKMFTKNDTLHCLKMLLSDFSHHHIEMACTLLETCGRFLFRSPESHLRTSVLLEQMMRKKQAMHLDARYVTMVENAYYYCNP

Take 13 nt PUR ss-RNA: the results for the Kd with UPF2L and with UPF2 MIF4G-D3 were 683 nM and 1280 nM, respectively.

For the substance 13 nt PYR ss-RNA, the Kd in the data set with UPF2L was 650 nM; with UPF2 MIF4G-D3 it was 529 nM.

Take 24 nt ds-DNA: the Kd in the data set with UPF2L came to 334 nM.

24 nt ds-RNA: the Kd with UPF2L came out at 454 nM.

Consider 24 nt ss-DNA, for which the Kd in the data set with UPF2L stood at 431 nM.

Take 24 nt ss-RNA: the Kd came out at 135 nM with UPF2L; 1400 nM in the data set with UPF2 MIF4G-D1; 530 nM with UPF2 MIF4G-D2-3; 784 nM with UPF2 MIF4G-D1-2; 694 nM with UPF2 MIF4G-D3; 3500 nM with UPF2 MIF4G-D2.
